Reference: patent US11191841B2, “Supramolecular modification of proteins” (Massachusetts Institute of Technology, priority 2015, dated 2021)

Experiments:
[1] = general statement, glucagon alone; cited from earlier work
[2] = Glucagon stability assessment (solubility, circular dichroism); assay type: physicochemical
Method: Human recombinant glucagon (Sigma) was dissolved at 4 mg/ml in PBS containing 1 mM HCl. This was mixed 1:1 with 1 equivalent of CB[7]-PEG10k in PBS, or in PBS alone, for a final glucagon concentration of 2 mg/ml. Vials were left to age at room temperature for various times. Circular dichroism was performed on samples without dilution, as well as on freshly dissolved glucagon, by utilizing a […] cuvette.

[3] = biological target: native insulin (Homo sapiens, UniProt P01308); experiment: Acridine orange competitive binding assay; details: AO 8 μM, CB[7] or PEG-T-CB[7] 6 μM, insulin 0-15 μM, in water; one-site competitive binding model; read-out: KD (binding constant toward insulin)
Method: To confirm binding of PEG-T-CB[7] to native insulin, a competitive binding assay was performed using acridine orange (AO) (FIG. 2D). In this assay, the fluorescent emission spectrum of AO is collected. The fluorescence intensity of AO increases when in complex with CB[7] relative to its emission when free in solution. As insulin is added, the CB[7]*AO complex dissociates as a result of stronger binding affinity of the B1 Phenylalanine residue to the CB[7], resulting in a reduction to the measured fluorescence intensity of AO.
Binding of PEG-T-CB[7] conjugates to insulin was assessed using the acridine orange dye displacement assay, in accordance with a previously described protocol. See, e.g., Chinai et al. Journal of the American Chemical Society 2011, 133(23): 8810-8813 Briefly, 6 μM of either unmodified CB[7] or the PEG-T-CB[7] conjugates and 8 μM acridine orange were combined with recombinant insulin (0, 1, 2, 4, 6, 8, 10, 12.5, 15 μM) in H2O. Samples were incubated overnight in light-free conditions and fluorescent spectra were collected on an Infinite® M1000 plate reader (Tecan Group, Ltd.), exciting at 485 nm and collecting the resulting fluorescent spectra from 495-650 nm. […]

[4] = reported previously (Shaikh et al. 2008); used for fitting; cited from earlier work
[5] = system: STZ-induced diabetic mice; experiment: In vivo blood glucose in STZ diabetic mice; parameters: species or system mouse; details: insulin 1 IU/kg s.c., alone or with 5 molar equivalents host; normoglycemia <200 mg/dL; 6-hour study
Method: A mouse model of insulin-deficient diabetes, prepared using streptozotocin to induce pancreatic ß-cell death, was used to evaluate the function of PEG-T-CB[7] conjugates in vivo (FIG. 4A). Following the onset of diabetes, mice were fasted overnight to ensure an average starting blood glucose level of approximately 450 mg/dL. See, e.g., Like et al. Science 1976, 193(4251): 415-417. Insulin was then administered subcutaneously at a dose of 1 IU/kg in a saline vehicle. Alternatively, an identical dose of insulin was administered along with CB [7], PEG5k-T-CB[7], PEG10k-T-CB [7], or PEG30k-T-CB [7]. All insulin formulations reduced average blood glucose to a normoglycemic level (<200 mg/dL for a mouse) following a single subcutaneous administration. Animals that received either native insulin or insulin formulated with unmodified CB[7] became hyperglycemic again approximately 2 hours following administration. […]
Male C57BL/6J, age 8 weeks, were purchased the Jackson Laboratory. […] Mice were allowed to eat ad libitum and glucose levels were monitored by peripheral tail vein bleeds using a portable glucose meter (Accu-Chek Aviva, Roche) daily until unfasted glucose levels >400 mg/dL. […] Blood glucose readings were collected every 30 minutes using a handheld glucose meter for 6 hours following insulin injection.

[6] = Insulin aggregation assay (transmittance at 540 nm); assay type: physicochemical; details: insulin 1 mg/mL, pH 7.4, 37° C., continuous agitation
Method: Insulin is well known to form fibrillar aggregates in physiologic conditions. To determine whether PEG-T-CB[7] can stabilize insulin and prevent its aggregation, assays were performed in physiologic salt concentrations at pH 7.4 and 37° C. with continuous agitation to determine the kinetics of insulin aggregation in a solution of 1 mg/mL protein (FIG. 3A). Specifically, transmittance was measured at 540 nm, a wavelength where both insulin and the PEG-T-CB[7] have negligible absorbance in order to detect the formation of aggregates, which scatter light, in solution over time. […] After the initial 100 h study, data were collected once daily to determine the duration of stability for each PEG-T-CB[7]/insulin formulation (FIG. 3B).
Recombinant human insulin was dissolved at 4 mg/ml in 2 mM HCl with 150 mM NaCl. […] The plate was immediately placed into an Infinite® M1000 plate reader (Tecan Group, Ltd.) and shaken continuously at 37° C. Absorbance readings at 540 nm were collected every 6 minutes for 100 hours, and absorbance values were subsequently converted to transmittance. […] Following the 100-hour kinetic study, the plate was maintained under continuous agitation at 37° C. and absorbance at 540 nm was monitored daily to approximate tA for the PEG-T-CB[7] conjugates.

Glucagon: Human recombinant glucagon (Sigma)
typical duration of aqueous solubility of glucagon [1]: less than one hour | glucagon conformation by circular dichroism after aging ([2]; aged for 24 hours at room temperature, 2 mg/ml): no appreciable glucagon in solution | glucagon solubility when dissolved alone ([2]; glucagon 2 mg/ml in PBS alone): readily precipitates from solution

cucurbit[7]uril [CB[7]]
Kd [3]: 2300 ± 200 nM | CB[7]•AO equilibrium constant Keq [4]: 200000 M⁻¹

native insulin: Recombinant human insulin, unmodified; aged or fresh as stated
duration of normoglycemia following administration (time until hyperglycemic again) [5]: approximately 2 hours | aggregation time (tA), time after which a 10% reduction in transmittance is observed ([6]; alone or with 1 equivalent host, physiologic salt): 13.6 ± 0.2 h | insulin aggregation in 100 hours of kinetic study ([6]; 100 h): Rapid aggregation
